Common to all, as to test: Esterase substrate specificity, fluorogenic SAR library kinetics
What all share (format): biochemical, Staphylococcus aureus
Common to all, as to settings: other: SaGloB, fluorogenic ester substrate; pH 7.5; 37.0 °C

Substrate in series [1]: CCC(OC)C(=O)OCOc1ccc2c(c1)Oc1cc(OCOC(=O)C(CC)OC)ccc1C21OC(=O)c2ccccc21
As for the experimental part: (§1) Kinetic measurements were performed according to [White et al., 2018] with minor variation. Lyophilized human and mouse sera were resuspended according to manufacturer instructions in highly pure, filtered water at protein concentrations of 85 mg/mL and 70 mg/mL, respectively. One milliliter of resuspended serum was added to a 24 mL mastermix for a final concentration of 31.25 mM Tris pH 7.5, 312.5 mM NaCl, 1.25 mM MgCl2, 12.5% glycerol, and 3.4 mg/mL or 2.8 mg/mL protein for human and mouse serum, respectively. For purified proteins, 5 mL of a 75 µg/mL stock was added to yield a 20 mL mastermix containing 31.25 mM Tris pH 7.5, 312.5 mM NaCl, 1.25 mM MgCl2, 12.5% glycerol, and 18.75 µg/mL protein. Mastermix was stored on ice when not in use. Twenty microliters of mastermix was transferred to a black, 96-well half area microplate (Corning, CLS3993) and prewarmed at 37°C. Fluorogenic substrates were prepared as 10 mM stock solutions in 100% DMSO and were diluted in water to a starting concentration of 500 µM. Enzyme catalyzed substrate hydrolysis was initiated by addition of 5 µL substrate dilution in technical duplicate to the prewarmed serum or protein solution. Final assay concentrations were as follows: 25 mM Tris pH 7.5, 250 mM NaCl, 1 mM MgCl2, 10% glycerol, and protein at a concentration of 2.72 mg/mL (human serum), 2.24 mg/mL (mouse serum), or 15 µg/mL (FrmB, GloB). The resulting change in fluorescence (λex = 485 nm, λem = 520 nm) was followed for 15 min at 37°C, collecting data every 30 s on a FLUOstar Omega microplate reader (BMG Labtech). Fluorescence measurements were converted to molar concentrations using a fluorescein standard curve (2.5 nmol–0.6 pmol). The initial rates of reaction were measured three independent times with two technical replicates per measurement and fit to a line using GraphPad Prism (GraphPad Software, La Jolla, CA). Initial rates of reaction were plotted versus the concentration of substrate and fit to a standard Michaelis–Menten equation (v = Vmax[S]/(Km + [S])), yielding estimates of Vmax and Km. Values for kcat and kcat/Km were calculated based on amount of enzyme added when purified enzymes were used.

Substrate in series [2]: CC(C)CCC(=O)OCOc1ccc2c(c1)Oc1cc(OCOC(=O)CCC(C)C)ccc1C21OC(=O)c2ccccc21
As for the experimental part:
as §1

Substrate in series [3]: C=CCOC(C)C(=O)OCOc1ccc2c(c1)Oc1cc(OCOC(=O)C(C)OCC=C)ccc1C21OC(=O)c2ccccc21
As for the experimental part:
as §1

Substrate in series [4]: CCCCC(=O)OCOc1ccc2c(c1)Oc1cc(OCOC(=O)CCCC)ccc1C21OC(=O)c2ccccc21
As for the experimental part:
as §1

Substrate in series [5]: CSC(C)C(=O)OCOc1ccc2c(c1)Oc1cc(OCOC(=O)C(C)SC)ccc1C21OC(=O)c2ccccc21
As for the experimental part:
as §1

Substrate in series [6]: CCOCCC(=O)OCOc1ccc2c(c1)Oc1cc(OCOC(=O)CCOCC)ccc1C21OC(=O)c2ccccc21
On the procedure:
as §1

The term Km denotes the concentration of substrate that gives half-maximal velocity. What is called kcat/Km is the turnover number divided by the Michaelis constant.

B1: SaGloB (Staphylococcus aureus subsp. aureus str. Newman) (protein)
chain: MRISSLTLGLVDTNTYFIENDKAVILIDPSGESEKIIKKLNQINKPLKAILLTHAHFDHIGAVDDIVDRFDVPVYMHEAEFDFLKDPVKNGADKFKQYGLPIITSKVTPEKLNEGSTEIEGFKFNVLHTPGHSPGSLTYVFDEFAVVGDTLFNNGIGRTDLYKGDYETLVDSIQDKIFELEGDLPLFPGHGPYTTVDDEQLNPFLHG
Regarding B1, the Km in series [1] is 55.5 µM; in series [2], 48.00 µM; in series [3], 36.91 µM; in series [4], 18.33 µM; in series [5], 49.5 µM; in series [6], 21.2 µM. Moreover, the Vmax in series [1] turned out to be 2.54 pmol*min-1*μg protein-1; in series [2] it was 0.444 pmol*min-1*μg protein-1; in series [3] it was 1.04 pmol*min-1*μg protein-1; in series [4], 0.292 pmol*min-1*μg protein-1; in series [5], 0.722 pmol*min-1*μg protein-1; in series [6] it was 0.731 pmol*min-1*μg protein-1. The kcat in series [1] is given as 0.380 10-3 s-1; in series [2], 0.0663 10-3 s-1; in series [3] it was 0.156 10-3 s-1; in series [4], 0.0436 10-3 s-1; in series [5], 0.108 10-3 s-1; in series [6] it was 0.109 10-3 s-1. Moreover, the kcat/Km in series [1] is 6.84 M⁻¹ s⁻¹; in series [2] it was 1.38 M⁻¹ s⁻¹; in series [3], 4.21 M⁻¹ s⁻¹; in series [4] it was 2.38 M⁻¹ s⁻¹; in series [5], 2.18 M⁻¹ s⁻¹; in series [6], 5.15 M⁻¹ s⁻¹.

The values are drawn from PMC8318587, “Structure-guided microbial targeting of antistaphylococcal prodrugs” (eLife, 2021).
